A word on the Kd: it is the free concentration of one partner at which half of the binding sites on the other are occupied at equilibrium, for simple one-to-one binding. Low values mean a tighter complex, high ones a looser complex. As usually defined, the kon is the second-order rate constant of association. A low value points to slow association. One may read the koff as the rate constant with which the complex falls apart. A low value points to a long-lived complex.

The values that follow come from patent US20240327497A1.

Experiment [1] has as its target canine FcRn (FcRn large subunit with canine beta-2-microglobulin) (canine). In words: SPR pH 5.5, SASA-Fc captured on BSA, FcRn 400 nM.
The target is the same in experiment [2]. In words: SPR pH 5.9, IgG coupled to C1 chip, 1:1 kinetic fit.
Experiment [3] shares this target. In words: SPR pH 6.0, IgG coupled to CM5, FcRn 50-800 nM.
Experiment [4] has the same target. In words: SPR pH 5.5, SASA-Fc captured on BSA, FcRn 100-800 nM.

Positions count from the first letter of the chain named. Names may count otherwise. “And” between values parts separate entries of the source, which are not always exact repeats. Equal entries are not always repeated.

B1: canine IgGB Fc (CH2-CH3) M428A with N-terminal SASA tag (Fc fusion, part only; not given: SASA tag, not shown: another chain or arm of the molecule; small tags and cut ends)
Fc: APEMLGGPSVFIFPPKPKDTLLIARTPEVTCVVVDLDPEDPEVQISWFVDGKQMQTAKTQPREEQFNGTYRVVSVLPIGHQDWLKGKQFTCKVNNKALPSPIERTISKARGQAHQPSVYVLPPSREELSKNTVSLTCLIKDFFPPDIDVEWQSNGQQEPESKYRTTPPQLDEDGSYFLYSKLSVDKSRWQRGDTFICAVAHEALHNHYTQESLSHSPGK
For B1, in experiment [1], the Kd is 723 nM and 1670 nM; the WT KD Avg/Variant KD is 0.78 and 0.34; the kon is 234000 M⁻¹ s⁻¹ and 318000 M⁻¹ s⁻¹.

B2: anti-NGF canine IgGB antibody, Fc variant A426Y + T286L + Y436H (antibody, part only; not given: anti-NGF variable domains and light chain, not shown: another chain or arm of the molecule)
Fc: B1 Fc with T56L, A198Y, A200M, Y208H
Regarding B2, in experiment [2], the equilibrium dissociation constant (Kd) was found to be 7.26 nM, the koff came out at 0.0412 s⁻¹ and the association rate constant (kon) was 5.67e+06 M⁻¹ s⁻¹.

B3: canine IgGB Fc (CH2-CH3) L252A with N-terminal SASA tag (Fc fusion, part only; not given: SASA tag, not shown: another chain or arm of the molecule; small tags and cut ends)
Fc: B1 Fc with L22A, A200M
B3: in experiment [1], the equilibrium dissociation constant (Kd) was 292 nM and 240 nM; the WT KD Avg/Variant KD is 1.94 and 2.36.

B4: canine IgGB Fc (CH2-CH3) G309A with N-terminal SASA tag (Fc fusion, part only; not given: SASA tag, not shown: another chain or arm of the molecule; small tags and cut ends)
Fc: B1 Fc with G79A, A200M
With B4, in experiment [1], the equilibrium dissociation constant (Kd) is 245 nM and 294 nM; the WT KD Avg/Variant KD was 2.31 and 1.92.

B5: anti-NGF canine IgGB antibody, Fc variant A426Y + Y436H (antibody, part only; not given: anti-NGF variable domains and light chain, not shown: another chain or arm of the molecule; small tags and cut ends)
Fc: B1 Fc with A198Y, A200M, Y208H
Turning to B5, in experiment [3], the dissociation constant Kd stood at 507 nM, the koff was found to be 0.0777 s⁻¹ and the kon came out at 153000 M⁻¹ s⁻¹. Moreover, in experiment [2], the Kd was 57.7 nM, the koff is 0.0608 s⁻¹ and the on-rate (kon) was 1.06e+06 M⁻¹ s⁻¹.

B6: canine IgGB Fc (CH2-CH3) Q311A with N-terminal SASA tag (Fc fusion, part only; not given: SASA tag, not shown: another chain or arm of the molecule; small tags and cut ends)
Fc: B1 Fc with Q81A, A200M
B6: in experiment [1], the Kd was 368 nM and 370 nM; the WT KD Avg/Variant KD is 1.54 and 1.53; the dissociation rate constant (koff) is 0.894 s⁻¹ and 0.496 s⁻¹; the kon is 2.43e+06 M⁻¹ s⁻¹ and 1.34e+06 M⁻¹ s⁻¹.

B7: canine IgGB Fc (CH2-CH3) T256A with N-terminal SASA tag (Fc fusion, part only; not given: SASA tag, not shown: another chain or arm of the molecule; small tags and cut ends)
Fc: B1 Fc with T26A, A200M
On to B7, for which, in experiment [1], the dissociation constant (Kd) is 447 nM and 298 nM; the WT KD Avg/Variant KD was 1.27 and 1.9; the koff stood at 0.166 s⁻¹.

B8: canine IgGB Fc (CH2-CH3) Q285A with N-terminal SASA tag (Fc fusion, part only; not given: SASA tag, not shown: another chain or arm of the molecule; small tags and cut ends)
Fc: B1 Fc with Q55A, A200M
In the case of B8, in experiment [1], the Kd is 341 nM and 257 nM; the WT KD Avg/Variant KD was 1.66 and 2.2; the dissociation rate constant (koff) was 0.112 s⁻¹.

B9: anti-NGF canine IgGB antibody, Fc variant A426Y (antibody, part only; not given: Anti-NGF variable domains, not shown: another chain or arm of the molecule; small tags and cut ends)
Fc: B1 Fc with A198Y, A200M
In experiment [3], B9 yielded a Kd of 1130 nM, an off-rate constant (koff) of 0.134 s⁻¹ and a kon of 119000 M⁻¹ s⁻¹. In addition, in experiment [2], the Kd was 129 nM, the koff stood at 0.113 s⁻¹ and the on-rate (kon) is 878000 M⁻¹ s⁻¹.

B10: canine IgGB Fc (CH2-CH3) I308A with N-terminal SASA tag (Fc fusion, part only; not given: SASA tag, not shown: another chain or arm of the molecule; small tags and cut ends)
Fc: B1 Fc with I78A, A200M
Turning to B10, in experiment [1], the Kd is 472 nM and 563 nM; the WT KD Avg/Variant KD was 1.2 and 1; the off-rate (koff) was 0.169 s⁻¹ and 0.194 s⁻¹; the kon is 357000 M⁻¹ s⁻¹ and 345000 M⁻¹ s⁻¹.

B11: canine IgGB Fc (CH2-CH3) N434H with N-terminal SASA tag (Fc fusion, part only; not given: SASA tag, not shown: another chain or arm of the molecule; small tags and cut ends)
Fc: B1 Fc with A200M, N206H
In the case of B11, in experiment [4], the Kd turned out to be 247 nM, the off-rate (koff) amounted to 0.102 s⁻¹ and the on-rate (kon) amounted to 411000 M⁻¹ s⁻¹.

B12: canine IgGB Fc (CH2-CH3) D378A with N-terminal SASA tag (Fc fusion, part only; not given: SASA tag, not shown: another chain or arm of the molecule; small tags and cut ends)
Fc: B1 Fc with D148A, A200M
Regarding B12, in experiment [1], the Kd is 673 nM and 592 nM; the WT KD Avg/Variant KD was 0.84 and 0.96; the koff was 0.183 s⁻¹ and 0.181 s⁻¹; the on-rate (kon) is 272000 M⁻¹ s⁻¹ and 306000 M⁻¹ s⁻¹.

B13: canine IgGB Fc (CH2-CH3) K315A with N-terminal SASA tag (Fc fusion, part only; not given: SASA tag, not shown: another chain or arm of the molecule; small tags and cut ends)
Fc: B1 Fc with K85A, A200M
As to B13, in experiment [1], the Kd was 422 nM and 548 nM; the WT KD Avg/Variant KD is 1.34 and 1.03; the off-rate (koff) came to 0.134 s⁻¹.

B14: canine IgGB Fc (CH2-CH3) T286A with N-terminal SASA tag (Fc fusion, part only; not given: SASA tag, not shown: another chain or arm of the molecule; small tags and cut ends)
Fc: B1 Fc with T56A, A200M
For B14, in experiment [1], the Kd is 464 nM and 569 nM; the WT KD Avg/Variant KD is 1.22 and 0.99; the koff was 0.196 s⁻¹ and 0.304 s⁻¹; the kon is 422000 M⁻¹ s⁻¹ and 533000 M⁻¹ s⁻¹.

B15: canine IgGB Fc (CH2-CH3) H433A with N-terminal SASA tag (Fc fusion, part only; not given: SASA tag, not shown: another chain or arm of the molecule; small tags and cut ends)
Fc: B1 Fc with A200M, H205A
Regarding B15, in experiment [1], the Kd is 266 nM and 359 nM; the WT KD Avg/Variant KD was 2.13 and 1.58; the koff is 0.229 s⁻¹ and 0.0997 s⁻¹.

B16: canine IgGB Fc (CH2-CH3) A254S with N-terminal SASA tag (Fc fusion, part only; not given: SASA tag, not shown: another chain or arm of the molecule; small tags and cut ends)
Fc: B1 Fc with A24S, A200M
Regarding B16, in experiment [1], the Kd is 340 nM and 317 nM; the WT KD Avg/Variant KD was 1.66 and 1.78.

B17: anti-NGF canine IgGB antibody, Fc variant A426H (antibody, part only; not given: Anti-NGF variable domains, not shown: another chain or arm of the molecule; small tags and cut ends)
Fc: B1 Fc with A198H, A200M
In experiment [3], B17 gave a Kd of 1040 nM, a koff of 0.124 s⁻¹ and an on-rate constant (kon) of 119000 M⁻¹ s⁻¹. In experiment [2], this molecule showed a Kd of 115 nM, an off-rate constant (koff) of 0.142 s⁻¹ and an association rate constant (kon) of 1.24e+06 M⁻¹ s⁻¹.

B18: anti-NGF canine IgGB antibody, Fc variant A426H + Y436H (antibody, part only; not given: anti-NGF variable domains and light chain, not shown: another chain or arm of the molecule; small tags and cut ends)
Fc: B1 Fc with A198H, A200M, Y208H
In experiment [3], B18 gave a Kd of 2270 nM, a koff of 0.202 s⁻¹ and a kon of 88700 M⁻¹ s⁻¹. In experiment [2], this molecule returned a Kd of 161 nM, an off-rate (koff) of 0.13 s⁻¹ and an on-rate (kon) of 808000 M⁻¹ s⁻¹.

B19: canine IgGB Fc (CH2-CH3) P307A with N-terminal SASA tag (Fc fusion, part only; not given: SASA tag, not shown: another chain or arm of the molecule; small tags and cut ends)
Fc: B1 Fc with P77A, A200M
Take B19: in experiment [1], the Kd was 325 nM and 338 nM; the WT KD Avg/Variant KD is 1.74 and 1.67; the dissociation rate constant (koff) is 1.23 s⁻¹.

B20: canine IgGB Fc (CH2-CH3) T250A with N-terminal SASA tag (Fc fusion, part only; not given: SASA tag, not shown: another chain or arm of the molecule; small tags and cut ends)
Fc: B1 Fc with T20A, A200M
B20: in experiment [1], the Kd was 335 nM and 328 nM; the WT KD Avg/Variant KD is 1.69 and 1.72.

B21: canine IgGB Fc (CH2-CH3) Y436A with N-terminal SASA tag (Fc fusion, part only; not given: SASA tag, not shown: another chain or arm of the molecule; small tags and cut ends)
Fc: B1 Fc with A200M, Y208A
For the molecule B21, in experiment [1], the Kd is 393 nM and 876 nM; the WT KD Avg/Variant KD is 1.44 and 0.65; the koff was 0.407 s⁻¹ and 0.213 s⁻¹.

B22: canine IgGA antibody with wild-type IgGA Fc and the variable domain of Gearing et al. 2013 (antibody, part only; not given: variable domains and light chain, not shown: another chain or arm of the molecule; small tags and cut ends)
Fc: VPEPLGGPSVLIFPPKPKDILRITRTPEVTCVVLDLGREDPEVQISWFVDGKEVHTAKTQSREQQFNGTYRVVSVLPIEHQDWLTGKEFKCRVNHIDLPSPIERTISKARGRAHKPSVYVLPPSPKELSSSDTVSITCLIKDFYPPDIDVEWQSNGQQEPERKHRMTPPQLDEDGSYFLYSKLSVDKSRWQQGDPFTCAVMHETLQNHYTDLSLSHSPGK
In experiment [3], B22 gave a Kd of 5970 nM, a dissociation rate constant (koff) of 0.187 s⁻¹ and a kon of 31400 M⁻¹ s⁻¹.

B23: canine IgGA antibody, Fc variant A426H, variable domain of Gearing et al. 2013 (antibody, part only; not given: Variable domains, not shown: another chain or arm of the molecule; small tags and cut ends)
Fc: B22 Fc with A199H
As to B23, in experiment [3], the dissociation constant (Kd) amounted to 1430 nM, the koff was determined as 0.0591 s⁻¹ and the on-rate constant (kon) came out at 41400 M⁻¹ s⁻¹.

B24: canine IgGA antibody, Fc variant A426Y, variable domain of Gearing et al. 2013 (antibody, part only; not given: Variable domains, not shown: another chain or arm of the molecule; small tags and cut ends)
Fc: B22 Fc with A199Y
In experiment [3], B24 displayed an equilibrium dissociation constant (Kd) of 767 nM, a koff of 0.0375 s⁻¹ and an on-rate (kon) of 48900 M⁻¹ s⁻¹.
